Data as given in PMC4104756.

Target: poly-(α,β)-DL-aspartic acid sodium salt
Test: turbidity at 600 nm + light microscopy
Conditions: scale: polyHis:polyAsp

volume ratio polyHis:polyAsp at maximum turbidity: 0.82
Substance: poly-L-histidine (peptide)
